Measured values as given in US20230094463.

Biological target: Human Galectin-3 protein (Acro Biosystems, GA3-H5129)
Assay: blocking ELISA (Gal3 coated; antibody 3 µg/mL + INSR)

B1: 15G7.2A7 (protein)
chain 1: EVQLQQSGPELVKPGASVKISCKASGYTFTDYYMNWVKQSHGKSLEWIGDINPNNGGTNYNQKFKGKATLTVDKSSSTAYMELRSLTSEDSAVYYCTSGYGFPYWGQGTLVTVSA
chain 2: DIQMNQSPSSLSASLGDTISITCRASQNINIWLSWYQQKPGNIPQLLIYKASNLHTGVPSRFSGSGSGTDFTLTISSLQPEDIATYYCLQGQSYPLTFGAGTKLVMK
Question: B1 was tested. Which “reduction of Gal3-INSR assembly (%)” value did it give?
Answer: reduced assembly of Gal3 and INSR by greater than 99% at 3 µg/mL
